Test results taken from patent US20200009238A1 (UNIVERSITETET I OSLO, published 2020).
Residue numbers refer to the chain shown, from its start. Numbers in names are those of the source.

How the values were obtained:
[1] = target: MART-1 peptide on HLA-A2, on HLA-A2 positive SupT1 cells expressing Iiwt MART-1; test: flow cytometry; HLA-A2 positive SupT1 cells expressing Iiwt MART-1, 10 nM sTcR, anti-His-PE
[2] = target: HLA-A2 single-chain trimer (SCT) combined with MART-1 peptide; test: flow cytometry; SupT1 cells expressing SCT-MART-1, 10 nM sTcR 15 min at RT, anti-His-PE
[3] = target: MART-1 peptide on HLA-A2, on HLA-A2 positive SupT1 cells expressing Ii L17A/RRP MART-1; test: flow cytometry; HLA-A2 positive SupT1 cells expressing Ii L17A/RRP MART-1, 10 nM sTcR, anti-His-PE
[4] = target: the molecule itself; test: self-association (trimer); western blot of boiled and non-boiled whole cell lysates of transfected Hek cells, anti Ii M-B741
Description: Hek cells were transfected as indicated. After 24 hours, whole cell lysates (WCL) were subjected to 4-20% SDS-PAGE Tris-HEPES-SDS gels, transferred to PVDF membranes and probed with anti Ii antibody, M-B741. The samples were either boiled or non-boiled before gel loading. Ii trimers and monomers are shown. Detection of actin in the WCL was used as loading control using anti-actin antibodies.
In order to function as a chaperone for MHC II antigen presentation, Ii depends on two important features; the ability to trimerize[17] and to traffic to the endosomal pathway. The trimerization of IiRRP/L17A was analyzed by western blotting (WB).

Molecule: soluble form of DMF5 (MART-1 specific TcR)
- MFI [1]: 105 MFI
- percent of cells stained [1]: 2%
- MFI [2]: 37000 MFI
- percent of cells stained [2]: 100%
- MFI [3]: 194 MFI
- percent of cells stained [3]: 21%

B1: human invariant chain Iip33 wild type (other)
chain: MDDQRDLISNNEQLPMLGRRPGAPESKCSRGALYTGFSILVTLLLAGQATTAYFLYQQQGRLDKLTVTSQNLQLENLRMKLPKPPKPVSKMRMATPLLMQALPMGALPQGPMQNATKYGNMTEDHVMHLLQNADPLKVYPPLKGSFPENLRHLKNTMETIDWKVFESWMHHWLLFEMSRHSLEQKPTDAPPKESLELEDPSSGLGVTKQDLGPVPM
notes: Full length protein expressed in transfected Hek cells and analysed in whole cell lysates; also called Iiwt; Ii wt
- binding result [4]: binds

B2: invariant chain double leucine mutant Ii L7A/L17A (other)
chain: B1 chain with L7A, L17A
notes: Expressed in Hek cells and analysed in lysates
- binding result [4]: binds

B3: invariant chain trafficking mutant Ii RRP/L17A (other)
chain: B1 chain with Q4R, D6P, L17A
notes: Expressed in Hek cells and analysed in lysates; also called IiL17A/RRP; Ii L17A RRP
- binding result [4]: binds
